In US7026292B1, “Compositions and therapeutic methods using morphogenic proteins and stimulatory factors” (Stryker Corporation, priority 1995, dated 2006):
Read-outs that look alike come from different tables or passages of the source.

Experiments:
[1] = test system: FRC (fetal rat calvarial) cells; experiment: Alkaline phosphatase (AP) activity assay in FRC cells; type: cell-based
Method: A preferred assay for testing potential MPSFs with OP-1 for osteogenic activity is the alkaline phosphatase (AP) enzymatic assay. AP is an osteoblast differentiation marker in primary osteoblastic FRC. (fetal rat calvarial) cells. The OP-1-stimulated AP activity is the result of increased steady-state AP mRNA levels as measured by Northern analysis. The procedure is generally as follows.
Primary osteoblast cell cultures were prepared from fetal rat calvaria using published procedures (M. A. Aronow et al., J. Cell Physiol., 143, pp. 213–221 (1990); T. K. McCarthy et al., J. Bone Miner. Res., 3, pp. 401–8 (1988)). Briefly, cells were harvested by sequential collagenase digestions of the calvarium and cells from digestions III to V were pooled. Fetal rat calvaria (FRC) cells were plated in complete medium (MEM, alpha; GIBCO/BRL, Grand Island, N.Y.) containing 10% fetal bovine serum, vitamin C (100 μg/ml), and antibiotics (100 U/ml penicillin, and […]). Cultures were incubated at 37° C. with 95% air/5% CO2 for several days to reach confluence. Cells were then subcultured for experimentations.
FRC cells were subcultured in 48-well plates (COSTAR, Cambridge, Mass.) in complete MEM medium with 10% fetal bovine serum until confluent in about 4 days. Confluent cells were rinsed with Hank's balanced salt solution (HBSS) and treated with serum-free α-MEM medium (with 0.1% BSA, 100 U/ml penicillin, and […]) containing the appropriate solvent vehicle (50% acetonitrile/0.1% trifluoroacetic acid for OP-1 treatment or 0.1N acetic acid for IGFI treatment) or recombinant human OP-1, or IGFI at the concentrations indicated. Solvent vehicle concentration in the culture medium never exceeded 0.1%. At the end of treatment, cells were lysed and total cellular alkaline phosphatase activity was measured (typically after 48 hours of treatment).
Total cellular alkaline phosphatase activity was determined using a commercial assay kit (Sigma, St. Louis, Mo.). Cell lysates were prepared by aspirating the medium from the 48-well plate, rinsing the cells with ice-cold PBS, and lysing the cells with 0.05% Triton X-100 and sonication for 60 sec. Alkaline phosphatase activity in the lysates was measured in 2-amino-2-methyl-1-propanol buffer (pH 10.3) with p-nitrophenyl phosphate as substrate at 37° C. Reactions were performed in 96-well plates for 1–2 h. Following color development, reactions were terminated with 0.5N NaOH. Absorbance of the reaction was measured at 405 nm using a Hewlett Packard Genenchem automatic plate reader. Total protein level in the lysates was measured according to Bradford (M. Bradford, Anal. Biochem., 72, pp. 248–54 (1976)) using bovine serum albumin as a standard. Alkaline phosphatase activity was expressed as nmol p-nitrophenol liberated per microgram of total cellular protein. […]
At least four experimental groups were tested: control cells treated with no OP-1 or MPSF; group I cells treated with increasing concentrations of MPSF alone; […]; and group III cells, […] concentrations of the MPSF.

[2] = cited from earlier work
[3] = Osteogenic activity of refolded E. coli-expressed constructs incorporated in a matrix; type: in vivo; settings: refolded constructs from SDS gel slices incorporated in a matrix; histological examination
Description: Samples of the various purified constructs and various mixtures of pairs of the constructs refolded together were applied to SDS polyacrylamide gels, separated by electrophoresis, sliced, incorporated in a matrix as disclosed below, and tested for osteogenic activity.

[4] = 200 nM PTH + 200 ng/ml OP-1, 48 hours (FIG. 9)

B1: PTH: parathyroid hormone, purchased from Sigma (protein, UniProt P01270 32-115, looked up)
Parathyroid hormone: SVSEIQLMHNLGKHLNSMERVEWLRKKLQDVHNFVALGAPLAPRDAGSQRPRKKEDNVLVESHEKSLGEADKADVNVLTKAKSQ
modifications: Parathyroid hormone
notes: parathyroid hormone, purchased from Sigma
Level of AP activity relative to cells treated with OP-1 alone [1, 4]: about two-fold | Level of AP activity relative to control cells [1, 4]: about five-fold | MPSF function in concert with OP-1 (figure title) ([1]; AP activity in FRC cells, OP-1 200 ng/ml (FIGS. 5–10)): is a MPSF in concert with OP-1 | Effect on OP-1-induced stimulation of AP activity ([1]; PTH 25 and 100 nM + 200 ng/ml OP-1, 48 hours (FIG. 9)): no effect | Stimulation of AP activity by PTH alone ([1]; PTH 25–200 nM alone, 48 hours (FIG. 9)): did not stimulate AP activity | Effect of PTH on AP activity induced by the OP-1/IGF-I combination ([1]; PTH at least about 50 nM + 200 ng/ml OP-1 + 25 ng/ml IGF-1): significantly increased

B2: OP-1: osteogenic protein OP-1 (BMP-7), morphogenic protein of the BMP family; recombinant human OP-1 used in FRC assays (protein, UniProt P18075 293-431, looked up)
Bone morphogenetic protein 7: STGSKQRSQNRSKTPKNQEALRMANVAENSSSDQRQACKKHELYVSFRDLGWQDWIIAPEGYAAYYCEGECAFPLNSYMNATNHAIVQTLVHFINPETVPKPCCAPTQLNAISVLYFDDSSNVILKKYRNMVVRACGCH
Osteogenic activity ([2]; deglycosylated protein, about 27 kD): has osteogenic activity | Osteogenic activity ([2]; native 30–35 kD protein in the reduced state): no detectable osteogenic activity | Stimulation of AP activity above vehicle-treated control culture ([1]; OP-1 500 ng/ml, 48 hours (FIG. 2)): 1.6 fold

B3: COP5: synthetic consensus osteogenic protein, Seq. ID No. 2 (protein)
chain: LYVDFSDVGWDDWIVAPPGYQAFYCHGECPFPLADHFNSTNHAVVQTLVNSVNSKIPKACCVPTELSAISMLYLDENEKVVLKYNQEMVVEGCGCR
Osteogenic activity [3]: induce osteogenesis

B4: COP7: synthetic consensus osteogenic protein, Seq. ID No. 3 (protein)
chain: LYVDFSDVGWNDWIVAPPGYHAFYCHGECPFPLADHLNSTNHAVVQTLVNSVNSKIPKACCVPTELSAISMLYLDENEKVVLKYNQEMVVEGCGCR
Osteogenic activity [3]: induce osteogenesis
